Experimental data: patent US10808009B2, “Peptide conjugates” (BIONIZ, LLC, priority 2011, dated 2020)
No end group written: not given here. MAL‑PEG24 = bi-functional PEG24 molecule (Mal-PEG24)

How the values were obtained:
Assay type in all cases: cell-based
IL-6 = assay: T1165 proliferation assay (WST-1), IL-6, dual peptide; details: T1165 cells, IL-6 0.1 ng/ml, increasing BNZ132-PEG-130
IL-2 = IL-2 (Homo sapiens, UniProt P60568); assay: CTLL2 proliferation assay (WST-1), IL-2, dual peptide; details: CTLL2 cells, IL-2 5 u/ml and 10 u/ml, increasing BNZ132-PEG-130 (0.1-10 uM)
IL-2, sequence (P60568 21-153): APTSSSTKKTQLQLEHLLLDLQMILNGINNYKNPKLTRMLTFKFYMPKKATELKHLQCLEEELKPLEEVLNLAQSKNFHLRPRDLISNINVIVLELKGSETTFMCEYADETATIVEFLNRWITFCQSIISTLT

IL-15 = IL-15 (Homo sapiens, UniProt P40933); assay: CTLL2 proliferation assay (WST-1), IL-15, dual peptide; details: CTLL2 cells, IL-15 2.5 ng/ml and 5 ng/ml, increasing BNZ132-PEG-130 (0.1-10 uM)
IL-15, sequence (P40933 49-162): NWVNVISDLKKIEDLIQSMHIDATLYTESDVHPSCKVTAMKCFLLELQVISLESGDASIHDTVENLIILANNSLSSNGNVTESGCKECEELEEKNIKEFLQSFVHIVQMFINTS

IKEFLQSFIHIVQSIINT (SEQ ID NO: 130)—MAL-PEG24—SLTHLIERSSRAVLQSLLRASRQ (SEQ ID NO: 131) (linker (positions not given here) via MAL‑PEG24; also: MAL-PEG24 attachment sites not given here) [BNZ132-PEG-130, BNZ132-1 conjugated to BNZ130 via a PEG24 linker; dual peptide antagonist]
inhibited in a dose response manner: inhibition of IL-6-induced proliferation (IL-6) | inhibition of IL-2-induced proliferation (IL-2) | inhibition of IL-15-induced proliferation (IL-15)
